B1: Azoarcus group I ribozyme (parent)
chain: GUGCCUUGCGCCGGGAAACCACGCAAGGGAUGGUGUCAAAUUCGGCGAAACCUAAGCGCCCGCCCGGGCGUAUGGCAACGCCGAGCCAAGCUUCGGCGCCUGCGCCGAUGAAGGUGUAGAGACUAGACGGCACCCACCUAAGGCAAACGCUAUGGUGAAGGCAUAGUCCAGGGAGUGGCGAAAGUCACACAAACCGG

The variants in the data set derive from B1. Nature of the data set: reverse-splicing fitness (ratio to wild type); higher = more active; in vitro selection; Mg2+ level not given. In a few lines:
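An in vitro group I ribozyme library with randomized positions was T7-transcribed and gel-purified. In triplicate, 10 pmol RNA in EPPS pH 7.5 was reacted with 50 pmoles of a 30-nt RNA substrate for 1 h at 37 °C across several added MgCl2 levels (1–48 mM), then stopped with EDTA. Products were reverse transcribed from a substrate-complementary primer, PCR-amplified and sequenced (HiSeq 4000). Fitness is a variant's read proportion after selection over that before, normalised to wild type.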
Consider C82U C150G C169U U176G, for which the reverse-splicing fitness came out at 0.0055. With C82U C150G C169U U176A, the reverse-splicing fitness was found to be 0.0076. Take C82U A145G C150G C169U U176C: the reverse-splicing fitness stood at 0.0132. The same measure for C82U A145G C150G C169U U176A: 0.0125; for C82U A145G C150G C169U U176G: 0.00689.

In the case of C82U A145G C150G C169U, the reverse-splicing fitness amounted to 0.00979. For C82U A145G C150G C169A, the reverse-splicing fitness was found to be 0.00942. Under C82U A145G C150G C169G stands 0.00814; under C82U A145G U176A, 0.353. As for C82U A145G U176G, the reverse-splicing fitness is 0.125.

For C82U A145G U176C, the reverse-splicing fitness came to 0.44.

Take C82U A145U C150G C169A: the reverse-splicing fitness was 0.00864. Under C82U A145U C150G C169U stands 0.00842. The same measure for C82U A145U C150G C169G: 0.00717; for C82U A145G C150U C169G U176A: 0.0129; for C82U A145G C150U C169G U176C: 0.0172. Turning to C82U A145G C150U C169G U176G, the reverse-splicing fitness came to 0.00503. The same measure for A111C A120C A145C C150G U176A: 0.0198; for A111C A120C A145C C150G U176G: 0.00444; for A111C A120C A145C C150G U176C: 0.0391. The same measure for C82U C150A C169G U176C: 0.0184. Under C82U C150A C169G U176G stands 0.00558; under C82U C150A C169G U176A, 0.0177. C82U A145G C169A U176A: the reverse-splicing fitness turned out to be 0.0178. The same measure for C82U A145G C169A U176G: 0.00411; for C82U A145G C169A U176C: 0.0258. As to A111C A120C A145U, the reverse-splicing fitness is 0.589. Under A111C A120C A145G stands 0.614. The same measure for A111C A120C A145C: 0.556; for C82U C150G C169A U176C: 0.01; for C82U C150G C169A U176A: 0.0115.

As to C82U C150G C169A U176G, the reverse-splicing fitness came out at 0.00612.

For A111C A120C A145C C169U U176G, the reverse-splicing fitness was 0.006.

Regarding A111C A120C A145C C169U U176A, the reverse-splicing fitness turned out to be 0.0332.

As to A111C A120C A145C C169U U176C, the reverse-splicing fitness came to 0.0413. As to A111C A120C A145C C150U C169A U176C, the reverse-splicing fitness amounted to 0.005. Under A111C A120C A145C C150U C169A U176A stands 0.0107; under A111C A120C A145C C150U C169A U176G, 0.00703. Turning to C82U A145U C150G C169U U176C, the reverse-splicing fitness stood at 0.0114. Under C82U A145U C150G C169U U176A stands 0.00782. For C82U A145U C150G C169U U176G, the reverse-splicing fitness was 0.00514. Regarding A111C A120C A145U C150A C169U U176A, the reverse-splicing fitness stood at 0.0195. For the variant A111C A120C A145U C150A C169U U176G, the reverse-splicing fitness is 0.00632.

Turning to A111C A120C A145U C150A C169U U176C, the reverse-splicing fitness was found to be 0.0144. For C82U A145U C150A C169G U176G, the reverse-splicing fitness worked out at 0.0051.

For the variant C82U A145U C150A C169G U176A, the reverse-splicing fitness is 0.0104. The same measure for C82U A145U C150A C169G U176C: 0.00918; for A111C A120C A145U C150A C169G U176A: 0.0127. Under A111C A120C A145U C150A C169G U176G stands 0.00651; under A111C A120C A145U C150A C169G U176C, 0.0146. Take A111C A120C: the reverse-splicing fitness turned out to be 0.576. The same measure for C82U C150A C169U U176C: 0.0153; for C82U C150A C169U U176G: 0.0058. Regarding C82U C150A C169U U176A, the reverse-splicing fitness worked out at 0.0169. As to C82U A145U C169G, the reverse-splicing fitness is 0.00906.

In the case of C82U A145U C169A, the reverse-splicing fitness turned out to be 0.00801. Under C82U A145U C169U stands 0.0139; under C82U A145G C150A U176A, 0.0793. Under C82U A145G C150A U176G stands 0.0228; under C82U A145G C150A U176C, 0.0964. Under A111C A120C A145G C150A U176G stands 0.0143; under A111C A120C A145G C150A U176C, 0.0663; under A111C A120C A145G C150A U176A, 0.0428. As for C82U A145G C150U C169U, the reverse-splicing fitness was 0.0153. With C82U A145G C150U C169A, the reverse-splicing fitness was 0.0113. The same measure for C82U A145G C150U C169G: 0.0102. As to A111C A120C A145C C150G C169A U176C, the reverse-splicing fitness was 0.00793. In the case of A111C A120C A145C C150G C169A U176G, the reverse-splicing fitness is 0.00595. In the case of A111C A120C A145C C150G C169A U176A, the reverse-splicing fitness was determined as 0.0076. For the variant C82U A145U C169G U176A, the reverse-splicing fitness was found to be 0.00811. Regarding C82U A145U C169G U176C, the reverse-splicing fitness was 0.00956. As for C82U A145U C169G U176G, the reverse-splicing fitness is 0.00447. Under C82U C150U U176A stands 0.238; under C82U C150U U176G, 0.0675. The same measure for C82U C150U U176C: 0.294; for A111C A120C A145C C169G: 0.0105. Turning to A111C A120C A145C C169A, the reverse-splicing fitness is 0.00953. With A111C A120C A145C C169U, the reverse-splicing fitness was 0.17.

As for C82U A145G C150G U176C, the reverse-splicing fitness was 0.0584. With C82U A145G C150G U176G, the reverse-splicing fitness is 0.0108. Under C82U A145G C150G U176A stands 0.0372. With A111C A120C A145C U176G, the reverse-splicing fitness is 0.0513. The same measure for A111C A120C A145C U176A: 0.172; for A111C A120C A145C U176C: 0.197.
